B1: AB1 (antibody, human IgG1, kappa, V domains shown)
VH: QSLEESGGDLVKPEGSLTLTCKASGFDFSSGYWICWVRQAPGKGLELIACIYAGTSGSTSYASWARGRFTISETSSTTVTLQMTSLTAADSATYFCARNLYTYNSLWGQGTLVTVSS
VL: QVLTQTASSVSAAVGGTVTISCQSSQSVYDNNWLAWYQQKPGQPPMLLIYTVSTLASGVSSRFKGSGSGTQFTLTISGVQCDDAATYYCQGTYYSSGWNFAFGGGTEVVVKR
notes: Rabbit variable domains on human IgG1 / human kappa constant domains; purified by protein A from HEK-293 supernatant; also called AB1 chimeric; rabbit/human chimeric anti-PD-1 antibody AB1
B2: AB5HU (antibody, human IgG1, kappa, V domains shown)
VH: EVQLLESGGGLVQPGGSLRLSCAASGFTFSSSHWICWVRQAPGKGLEWIACIYTGSIDVFYYASWAKGRFTISRDNSKNTLYLQMNSLRAEDTAVYYCARAANTDTTYFNLWGQGTLVTVSS
VL: AYDMTQSPSSLSASVGDRVTINCQASQSINNQLSWYQQKPGKVPKLLIYGASTLASGVPSRFTGSGSGTDFTLTISSLQPEDVATYYCHVHYCSGGSCFWAFGGGTKVEIKR
notes: Humanized, human gamma-1 / kappa constant domains as in the full-length entries; also called humanized form of antibody AB5; ABSHU [sic]
B3: AB2HU (antibody, human IgG1, kappa, V domains shown)
VH: QEQLLESGGGLVQPGGSLRLSCTASGFSFSSYWMCWVRQAPGKGLEWIGCITTGSGSTYYASWAKRRFTISKDNSKNTVTLQMNSLRAEDTAVYYCTRAFDLWGQGTLVTVSS
VL: DIQMTQSPSSLSASVGDRVTITCQASQSIYSYLNWYQQKPGKAPKLLIYGASNLASGVPSRFSGSGSGTDFTLTISSLQPEDFATYYCQSSWLSGAVGNAFGGGTKVEIKR
notes: Humanized, human gamma-1 / kappa constant domains as in the full-length entries; also called humanized form of antibody AB2
B4: AB1HU (antibody, human IgG1, kappa, V domains shown)
VH: EVQLVESGGGLVQPGGSLRLSCAASGFDFSSGYWICWVRQAPGKGLELIACIYAGTSGSTSYASWARGRFTISETSKNTVTLQMNSLRAEDSAVYYCARNLYTYNSLWGQGTLVTVSS
VL: DIQMTQSPSTLSASVGDRVTITCQSSQSVYDNNWLAWYQQKPGKAPKLLIYTVSTLASGVPSRFSGSGSGTEFTLTISSLQPDDFATYYCQGTYYSSGWNFAFGGGTKVEIKR
notes: Humanized, human gamma-1 / kappa constant domains as in the full-length entries; also called humanized form of antibody AB1
B5: AB4 (antibody, human IgG1, kappa, V domains shown)
VH: QSLEESGGRLVTPGTPLTLTCTVSGFSLSSYAMSWVRQAPGKGLEYIGYIGDTTGIAYASWANGRFTISKTSTTVDLKITSPTTGDTATYFCARGWSYLDIWGQGTLVTVSS
VL: ALVMTQTPSSVSAAVGGTVTINCQASQNIYSNLAWYQQKPGQPPSLLIYQASTLASGVSSRFSGSGYGTEFTLTISDLECADAATYYCQGGYYSAALNTFGGGTEVVVKR
notes: Rabbit variable domains on human IgG1 / human kappa constant domains; also called AB4 chimeric
B6: AB4HU (antibody, human IgG1, kappa, V domains shown)
VH: EVQLVESGGGLVQPGGSLRLSCTASGFSLSSYAMSWVRQAPGKGLEYIGYIGDTTGIAYASWANGRFTISKDNTKNTVDLQMNSLRAEDTAVYYCARGWSYLDIWGQGTLVTVSS
VL: ALVMTQSPSSLSASVGDRVTITCQASQNIYSNLAWYQQKPGKVPKLLIYQASTLASGVPSRFSGSGYGTDFTLTISSLQPEDVATYYCQGGYYSAALNTFGGGTKVEIKR
notes: Humanized, human gamma-1 / kappa constant domains as in the full-length entries; also called humanized form of antibody AB4
B7: AB3HU (antibody, human IgG1, kappa, V domains shown)
VH: QEQVKETGGGLVQPGGSLRLSCAASGFTISSYGVSWVRQAPGKGLEWVALIFPGIGFKDYASWVNGRFTLSSDNAQNTVELQMNSLRAEDTAVYYCARDLDLWGQGTLVTVSS
VL: DIQMTQSPSSLSASVGDRVTITCQSSPSVYSNYLSWYQQKPGKVPKLLIYYASTLASGVPSRFSGSGSGTDFTLTISSLQPEDVATYYCAGGYSSSTRAFGGGTKVEIKR
notes: Humanized, human gamma-1 / kappa constant domains as in the full-length entries; also called humanized form of antibody AB3
B8: AB3 (antibody, human IgG1, kappa, V domains shown)
VH: QEQVKETGGGLVQPGGSLTLSCKASGFTISSYGVSWVRQAPGKGLEWIALIFPGIGFKDYASWVNGRFTLSSDNAQNTVELQMNSLTAADTAAYFCARDLDLWGQGTLVTVSS
VL: QVLTQTPSPVSAAVGGTVSISCQSSPSVYSNYLSWFQQKPGQPPKLLIYYASTLASGVPSRFKGSGSGTQFTLTISDVQCDDAATYYCAGGYSSSTRAFGGGTEVVVKR
notes: Rabbit variable domains on human IgG1 / human kappa constant domains; also called AB3 chimeric
B9: AB5 (antibody, human IgG1, kappa, V domains shown)
VH: QEQLEESGGDLVKPEGSLTLTCTASGFSFSSSHWICWVRQAPGKGLEWIACIYTGSIDVFYCASWAKGRFTISKPSSTTVTLQVPSLTAADTATYFCARAANTDTTYFNLWGPGTLVTVSS
VL: AYDMTQTPSSVSAAVGGTVTINCQASQSINNQLSWYQQKPGQPPKLLIYGASTLASGVPSRFTGSGSGTEFTLTISGVQCDDAATYYCHVHYCSGGSCFWAFGGGTEVVVKR
notes: Rabbit variable domains on human IgG1 / human kappa constant domains; also called AB5 chimeric
B10: recombinant human PD-L2 (ligand, UniProt Q9BQ51 20-220, looked up)
ligand: LFTVTVPKELYIIEHGSNVTLECNFDTGSHVNLGAITASLQKVENDTSPHRERATLLEEQLPLGKASFHIPQVQVRDEGQYQCIIIYGVAWDYKYLTLKVKASYRKINTHILKVPETDEVELTCQATGYPLAEVSWPNVSVPANTSHSRTPEGLYQVTSVLRLKPPPGRNFSCVFWNTHVRELTLASIDLQSQMEPRTHPT
modifications: monobiotinylated, His-tag purified
notes: recombinant soluble protein; also called huPD-L2
B11: AB2 (antibody, human IgG1, kappa, V domains shown)
VH: QEQLVESGGGLVQPEGSLTLTCTASGFSFSSYWMCWVRQAPGKGLEWIGCITTGSGSTYYASWAKRRFTISKTSSTTVTLQMTSLTAADTATYFCTRAFDLWGPGTLVTVSS
VL: DVVMTQTPASVSAVVGGTVTIKCQASQSIYSYLNWYQQKPGQPPKLLIYGASNLASGVSSRFKGSGSGTEFTLTISDLECADAATYYCQCSWLSGAVGNAFGGGTEVVVKR
notes: Rabbit variable domains on human IgG1 / human kappa constant domains; also called AB2 chimeric

Assays:
[1] = target: T1, human PD-1 extracellular domain (human, UniProt Q15116 25-170); test: bio-layer interferometry (Octet Red 96), antibody on anti-human Fc biosensor, PD-1 ECD in solution, 1:1 global fit, 30 C
T1 construct: extracellular domain; Soluble analyte in the bio-layer interferometry assay; also called recombinant human PD-1 extracellular domain protein
Description: The binding kinetics of selected anti-PD-1 antibodies AB1-AB5 and AB1HU-AB5HU was determined by bio-layer interferometry analysis on a ForteBio Octet Red 96 instrument. First, purified antibodies were produced by protein A chromatography using HEK-293 transiently-transfected antibody supernatants. This assay was performed by immobilizing the purified antibodies to anti-human Fc biosensors. PD-1 binding to and dissociation from the biosensors was then observed at various concentrations of PD-1. Specifically, eight anti-human Fc biosensors were placed into wells containing the same purified antibody for 5 minutes. Biosensors were equilibrated in kinetics buffer (Pall ForteBio) for 1 minute to establish a baseline. Association of PD-1 was observed by placing the biosensors into wells containing various concentrations of human PD-1 extracellular domain for 5 minutes. Dissociation was measured after transfer of the biosensors into kinetics buffer and monitoring the interferometry signals for 15 minutes. All steps of the assay were performed at 30° C. with shaking at 1000 RPM. The on and off rates (kon and koff) and the equilibrium binding constant KD were determined using the software provided by the manufacturer and were fit using a 1:1 binding global fit model comprising several of the concentrations tested.

[2] = target: T2, human PD-1 expressed on Jurkat cells (human, UniProt Q15116 25-288); test: flow cytometry on Jurkat/huPD-1 cells, anti-human Fc AF647 secondary, MFI
T2 construct: whole, on cells; also called huPD-1; Jurkat/huPD-1 clonal cell line
Description: The human PD-1 gene was subcloned into the pcDNA3.1 mammalian expression vector and transfected into the Jurkat human T cell line. A clonal cell population expressing high levels of huPD-1 was generated by G418 drug selection and single-cell sorting. This Jurkat/huPD-1 clonal cell line was labeled with FVS520 viability dye (BD Biosciences, 1:2000 dilution) for 15 minutes at room temperature. The labeled cells were then diluted in FACS buffer (2% FBS in PBS), added to V-bottom 96-well plates (50,000 cells per well), and stained with 0-25 nM anti-huPD1 or isotype control antibody on ice for 30 minutes. Cells were washed to remove excess primary antibody, then labeled with Alexa luor 647-conjugated goat anti-human Fc secondary antibody (Jackson Immunoresearch, 1:1600 dilution) on ice for 20 minutes. The labeled cells were then washed with FACS buffer before acquisition on a BD FACSCalibur flow cytometer equipped with the Cytek AMS plate loader system. Data points show the median fluorescence intensity (MFI) on the AF647 channel after gating on live cells. Nonlinear regression methods were used to fit curves to each data set, and error bars represent the standard deviation of duplicate samples.

[3] = target: T2, human PD-1 expressed on Jurkat cells; test: blocking of biotinylated human PD-L2 binding to Jurkat/huPD-1 cells, flow cytometry, streptavidin-APC MFI
Description: The Jurkat/huPD-1 clonal cell line was labeled with FVS520 viability dye (BD Biosciences, 1:2000 dilution) for 15 minutes at room temperature. The labeled cells were then diluted in FACS buffer (2% FBS in PBS), added to V-bottom 96-well plates (50,000 cells per well), and stained with 0-100 nM anti-huPD1 or isotype control antibody on ice for 30 minutes. Cells were washed to remove excess antibody, then labeled with 15 ug/ml His-tag purified, monobiotinylated huPD-L2 on ice for 30 minutes. Cells were washed with FACS buffer, then labeled with 0.25 ug/ml APC-conjugated streptavidin on ice for 20 minutes. Cells were washed again with FACS buffer before acquisition on a FACSCalibur flow cytometer equipped with the Cytek AMS plate loader system. […] Error bars represent the standard deviation of duplicate samples.

[4] = target: T2, human PD-1 expressed on Jurkat cells; test: blocking of biotinylated human PD-L1 binding to Jurkat/huPD-1 cells, flow cytometry, streptavidin-APC MFI
Description: The Jurkat/huPD-1 clonal cell line was labeled with FVS520 viability dye (BD Biosciences, 1:2000 dilution) for 15 minutes at room temperature. The labeled cells were then diluted in FACS buffer (2% FBS in PBS), added to V-bottom 96-well plates (50,000 cells per well), and stained with 0-100 nM anti-huPD1 or isotype control antibody on ice for 30 minutes. Cells were washed to remove excess antibody, then labeled with 15 ug/ml His-tag purified, monobiotinylated […] on ice for 30 minutes. Cells were washed again with FACS buffer, then labeled with 0.25 ug/ml APC-conjugated streptavidin on ice for 20 minutes. Cells were washed again with before acquisition on a BD FACSCalibur flow cytometer equipped with the Cytek AMS plate loader system. AB1HU-AB5HU results in this assay are shown in FIG. 3. and show the median fluorescence intensity (MFI) on the APC channel after gating on live cells. Error bars represent the standard deviation of duplicate samples.

[5] = target: T2, human PD-1 expressed on Jurkat cells; test: flow cytometry on Jurkat/huPD-1 cells, biotinylated PD-L2 detected with streptavidin-APC, MFI

T2 sequence (Q15116 25-288): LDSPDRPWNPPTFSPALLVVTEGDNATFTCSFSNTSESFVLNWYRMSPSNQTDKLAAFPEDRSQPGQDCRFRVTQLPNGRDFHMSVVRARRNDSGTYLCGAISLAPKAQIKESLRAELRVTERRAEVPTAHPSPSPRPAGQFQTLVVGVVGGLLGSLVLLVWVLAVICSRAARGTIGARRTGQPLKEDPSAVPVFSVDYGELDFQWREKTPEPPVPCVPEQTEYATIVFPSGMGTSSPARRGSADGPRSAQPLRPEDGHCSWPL
T1 sequence (Q15116 25-170): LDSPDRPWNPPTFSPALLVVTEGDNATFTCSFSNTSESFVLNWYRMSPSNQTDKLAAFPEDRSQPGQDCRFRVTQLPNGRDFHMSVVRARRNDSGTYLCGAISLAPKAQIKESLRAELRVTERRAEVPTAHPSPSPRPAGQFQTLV

Row | Binder | Kd [1] | koff [1] | kon [1] | EC50 (read off the curve) [2] | IC50 (read off the curve) [3] | IC50 (read off the curve) [4] | binding result [5]
1 | B1 | 4.8 nM | 0.00016 s⁻¹ | 36000 M⁻¹ s⁻¹ |  |  |  | 
2 | B2 | 6.6 nM | 0.0004 s⁻¹ | 61000 M⁻¹ s⁻¹ |  |  |  | 
3 | B3 | 17 nM | 0.0015 s⁻¹ | 89000 M⁻¹ s⁻¹ | ~600 pM | ~200 pM | ~2000 pM | 
4 | B4 | 16 nM | 0.0002 s⁻¹ | 12000 M⁻¹ s⁻¹ |  |  | ~4000 pM | 
5 | B5 | 9.2 nM | 0.001 s⁻¹ | 110000 M⁻¹ s⁻¹ |  |  |  | 
6 | B6 | 4.3 nM | 0.00038 s⁻¹ | 87000 M⁻¹ s⁻¹ |  |  |  | 
7 | B7 | 1.1 nM | 0.00014 s⁻¹ | 130000 M⁻¹ s⁻¹ | ~1000 pM | ~1000 pM | ~1000 pM | 
8 | B8 | 0.9 nM | 0.00012 s⁻¹ | 130000 M⁻¹ s⁻¹ |  |  |  | 
9 | B9 | 3.3 nM | 0.00026 s⁻¹ | 78000 M⁻¹ s⁻¹ |  |  |  | 
10 | B10 |  |  |  |  |  |  | binds
11 | B11 | 86 nM | 0.0057 s⁻¹ | 67000 M⁻¹ s⁻¹ |  |  |  | 

Source: patent US20200157219A1 (SYSTIMMUNE, published 2020)
